In general, IC50 refers to the midpoint of a concentration-inhibition curve.

Assay [1] concerns the target human thrombin receptor (PAR1) (human) (UniProt P25116). Description: ELISA, purified MBP-Gαq on reconstituted PAR1 with thrombin receptor activating peptide. (In general: In an ELISA, binding on a coated surface is turned into a signal by an enzyme label.)
In assay [2] the target is light-activated rhodopsin (bovine) (UniProt P02699). Description: ELISA, MBP fusion on light-activated rhodopsin.
A further assay addresses β2 adrenergic receptor. In words: ELISA of panned Gs library clones on reconstituted receptor.

human thrombin receptor (PAR1) (human), sequence (P25116 42-425): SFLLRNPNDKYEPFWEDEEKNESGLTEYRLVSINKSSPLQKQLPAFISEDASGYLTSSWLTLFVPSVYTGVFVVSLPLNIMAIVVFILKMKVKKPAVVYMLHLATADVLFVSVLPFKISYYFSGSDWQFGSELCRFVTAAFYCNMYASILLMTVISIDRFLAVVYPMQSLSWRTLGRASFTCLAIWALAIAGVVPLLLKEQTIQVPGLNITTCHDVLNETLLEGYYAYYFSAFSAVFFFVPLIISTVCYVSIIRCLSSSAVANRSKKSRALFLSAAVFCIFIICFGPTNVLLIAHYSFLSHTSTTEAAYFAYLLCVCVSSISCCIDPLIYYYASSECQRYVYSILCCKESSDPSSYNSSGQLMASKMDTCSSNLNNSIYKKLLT
light-activated rhodopsin (bovine), sequence (P02699 whole entry, the tested form may be a part): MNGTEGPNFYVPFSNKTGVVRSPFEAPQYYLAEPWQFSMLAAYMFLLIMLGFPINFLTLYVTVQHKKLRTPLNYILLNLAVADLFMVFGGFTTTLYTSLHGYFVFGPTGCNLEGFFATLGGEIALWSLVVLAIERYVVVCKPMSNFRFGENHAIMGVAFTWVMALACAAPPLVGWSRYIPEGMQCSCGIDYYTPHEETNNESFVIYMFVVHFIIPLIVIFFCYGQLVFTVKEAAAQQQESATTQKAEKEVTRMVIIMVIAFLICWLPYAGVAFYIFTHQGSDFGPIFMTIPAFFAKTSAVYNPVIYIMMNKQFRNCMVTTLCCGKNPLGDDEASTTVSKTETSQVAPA

With maltose binding protein-Gαq (MBP-Gαq), in assay [1], the IC50 came to 0.214 µM.

MBP-Gαt340-350K341R came in with an IC50 in assay [2] of 6 µM.

B1: BAR40 … (peptide)
peptide: PCIQLGQYESF
Take B1: the ELISA with β2 adrenergic receptor was 0.028.

B2: BAR2 … (peptide)
peptide: QRVHLRQDELL
In the assay with β2 adrenergic receptor, B2 had an ELISA of 0.197.

B3: AG4 … (peptide)
peptide: QRLRLGPDELF
In the case of B3, in the assay with β2 adrenergic receptor, the ELISA came to 0.291.

B4: BAR11 … (peptide)
peptide: HRRHIGPFALL
Molecule B4 had an ELISA with β2 adrenergic receptor of 0.048.

B5: AG13 … (peptide)
peptide: QRLHLRGYEFL
B5: the ELISA with β2 adrenergic receptor came to 0.054.

B6: AG11 … (peptide)
peptide: DRMHLWRFGLL
As for B6, in the assay with β2 adrenergic receptor, the ELISA worked out at 0.192.

B7: BAR31 … (peptide)
peptide: QRLRLRKYRLF
Regarding B7, the ELISA with β2 adrenergic receptor stood at 0.026.

B8: BAR3 … (peptide)
peptide: QWMDLRQHELL
In the case of B8, the ELISA with β2 adrenergic receptor was 0.185.

B9: BAR1 … (peptide)
peptide: QRIHRRPFKFF
Consider B9, for which, in the assay with β2 adrenergic receptor, the ELISA was 0.218.

B10: AG18 … (peptide)
peptide: QRMNLGPCGLL
B10 returned an ELISA in the assay with β2 adrenergic receptor of 0.155.

B11: AG3 … (peptide)
peptide: QRMPLRLFEFL
In the case of B11, the ELISA with β2 adrenergic receptor worked out at 0.217.

B12: AG9 … (peptide)
peptide: QRMPLRQYELL
As for B12, in the assay with β2 adrenergic receptor, the ELISA worked out at 0.19.

B13: BAR8 … (peptide)
peptide: ERLHRRLFQLH
B13 had an ELISA with β2 adrenergic receptor of 0.047.

B14: AG20 … (peptide)
peptide: RWLHWQYRGRG
Molecule B14 yielded an ELISA with β2 adrenergic receptor of 0.431.

B15: BAR20 … (peptide)
peptide: NCMKFRSCGLF
With B15, the ELISA with β2 adrenergic receptor turned out to be 0.079.

B16: AG19 … (peptide)
peptide: PRPRLLRFKIP
In the case of B16, in the assay with β2 adrenergic receptor, the ELISA turned out to be 0.361.

B17: AG2 … (peptide)
peptide: QGEHLRQLQLQ
B17 gave an ELISA with β2 adrenergic receptor of 0.33.

B18: AG1 … (peptide)
peptide: QGMQLRRFKLR
The molecule B18 yielded an ELISA with β2 adrenergic receptor of 0.435.

The record behind these values is patent US20080280308A1.
